# From PMC4381072, “Short antisense-locked nucleic acids (all-LNAs) correct alternative splicing abnormalities in myotonic dystrophy”
# T1: MBNL1 (isoform encoded by exons 1-4) (UniProt Q9NR56 1-269)
# T1 sequence: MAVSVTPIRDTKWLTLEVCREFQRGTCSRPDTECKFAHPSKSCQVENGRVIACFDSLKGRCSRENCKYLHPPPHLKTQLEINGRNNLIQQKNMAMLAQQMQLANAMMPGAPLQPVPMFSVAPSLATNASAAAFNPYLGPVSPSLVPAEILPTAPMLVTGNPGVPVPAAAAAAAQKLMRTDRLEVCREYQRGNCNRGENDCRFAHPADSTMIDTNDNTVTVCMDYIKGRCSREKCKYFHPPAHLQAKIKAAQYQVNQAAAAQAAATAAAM
# Molecular target: T1, MBNL1 (isoform encoded by exons 1-4)
# Assay: filter binding; 0-500 nM MBNL1; 0.5 nM oligomer; FBA: FBB (50 mM Tris-HCl pH 8.0, 1 mM MgCl2, 0.05% Tween 20) with 250 mM NaCl and 15 mM KCl, 37 C, 30 min, 30 ul
# Conditions: protein: recombinant; tags: N-terminal GST; C-terminal His6; label: radiolabeled; single strand
row,Binder,binding result
1,"CAGCAGCA (XNA, all LNA, phosphodiester) [PO-LNA-CAG-8]",no binding
2,"CAGCAGCAGC (XNA, all LNA, phosphodiester) [PO-LNA-CAG-10]",no binding
